# Data taken from patent US20100310640A1.
# T1: HLA-DR DRB1*0701 (human)
# T1 chain 1: not shown
# T1 chain 2: not shown
# T2: HLA-DR DRB4*0101 (human)
# T2 chain 1: not shown
# T2 chain 2: not shown
# T3: HLA-DR DRB1*0405 (human)
# T3 chain 1: not shown
# T3 chain 2: not shown
# T4: HLA-DR DRB1*1302 (human)
# T4 chain 1: not shown
# T4 chain 2: not shown
# T5: HLA-DR DRB1*0404 (human)
# T5 chain 1: not shown
# T5 chain 2: not shown
# T6: HLA-DR DRB1*0401 (human)
# T6 chain 1: not shown
# T6 chain 2: not shown
# T7: HLA-DR DRB5*0101 (human)
# T7 chain 1: not shown
# T7 chain 2: not shown
# T8: HLA-DR DRB1*1101 (human)
# T8 chain 1: not shown
# T8 chain 2: not shown
# T9: HLA-DR DRB1*0101 (human)
# T9 chain 1: not shown
# T9 chain 2: not shown
# T10: HLA-DR DRB1*0301 (human)
# T10 chain 1: not shown
# T10 chain 2: not shown
# T11: HLA-DR DRB1*0901 (human)
# T11 chain 1: not shown
# T11 chain 2: not shown
# T12: HLA-DR DRB1*0802 (human)
# T12 chain 1: not shown
# T12 chain 2: not shown
# T13: HLA-DR DRB1*1201 (human)
# T13 chain 1: not shown
# T13 chain 2: not shown
# Experiments:
# Settings in all cases: remark: other sources report otherwise
# [1] = molecular target: T1, HLA-DR DRB1*0701 (human); assay: radiolabeled-peptide inhibition, purified HLA-DR
# [2] = molecular target: T2, HLA-DR DRB4*0101 (human); assay: radiolabeled-peptide inhibition, purified HLA-DR
# [3] = molecular target: T3, HLA-DR DRB1*0405 (human); assay: radiolabeled-peptide inhibition, purified HLA-DR
# [4] = molecular target: T4, HLA-DR DRB1*1302 (human); assay: radiolabeled-peptide inhibition, purified HLA-DR
# [5] = molecular target: T5, HLA-DR DRB1*0404 (human); assay: radiolabeled-peptide inhibition, purified HLA-DR
# [6] = molecular target: T6, HLA-DR DRB1*0401 (human); assay: radiolabeled-peptide inhibition, purified HLA-DR
# [7] = molecular target: T7, HLA-DR DRB5*0101 (human); assay: radiolabeled-peptide inhibition, purified HLA-DR
# [8] = molecular target: T8, HLA-DR DRB1*1101 (human); assay: radiolabeled-peptide inhibition, purified HLA-DR
# [9] = molecular target: T2, HLA-DR DRB4*0101 (human); assay: radioligand inhibition, purified HLA-DR
# [10] = molecular target: T9, HLA-DR DRB1*0101 (human); assay: radioligand inhibition, purified HLA-DR
# [11] = molecular target: T4, HLA-DR DRB1*1302 (human); assay: radioligand inhibition, purified HLA-DR
# [12] = molecular target: T5, HLA-DR DRB1*0404 (human); assay: radioligand inhibition, purified HLA-DR
# [13] = molecular target: T6, HLA-DR DRB1*0401 (human); assay: radioligand inhibition, purified HLA-DR
# [14] = molecular target: T8, HLA-DR DRB1*1101 (human); assay: radioligand inhibition, purified HLA-DR
# [15] = molecular target: T10, HLA-DR DRB1*0301 (human); assay: radioligand inhibition, purified HLA-DR
# [16] = molecular target: T1, HLA-DR DRB1*0701 (human); assay: radioligand inhibition, purified HLA-DR
# [17] = molecular target: T11, HLA-DR DRB1*0901 (human); assay: radioligand inhibition, purified HLA-DR
# [18] = molecular target: T3, HLA-DR DRB1*0405 (human); assay: radioligand inhibition, purified HLA-DR
# [19] = molecular target: T7, HLA-DR DRB5*0101 (human); assay: radioligand inhibition, purified HLA-DR
# [20] = molecular target: T12, HLA-DR DRB1*0802 (human); assay: radioligand inhibition, purified HLA-DR
# [21] = molecular target: T9, HLA-DR DRB1*0101 (human); assay: radiolabeled-peptide inhibition, purified HLA-DR
# [22] = molecular target: T9, HLA-DR DRB1*0101 (human); assay: radioligand competition, purified HLA-DR
# [23] = molecular target: T13, HLA-DR DRB1*1201 (human); assay: radioligand inhibition, purified HLA-DR
binder,measurement,setting,value
ISAVVGILLVVVLGV [9019.0067],IC50,[1],941 nM
same,IC50,[2],3110 nM
same,IC50,[3],447 nM
same,IC50,[4],443 nM
same,IC50,[5],3000 nM
same,IC50,[6],420 nM
SDVWSYGVTVWELMT [9019.0089],IC50,[3],1900 nM
same,IC50,[7],5420 nM
same,IC50,[6],2760 nM
same,IC50,[8],2640 nM
CMQIAKGMSYLEDVR [9019.0083],IC50,[1],116 nM
same,IC50,[2],3000 nM
same,IC50,[7],130 nM
same,IC50,[4],2230 nM
same,IC50,[5],867 nM
same,IC50,[6],2650 nM
EALLESSLRQAQQNM [Cyclin D1.252],IC50,[9],4030 nM
same,IC50,[10],8210 nM
same,IC50,[11],4760 nM
same,IC50,[12],1020 nM
same,IC50,[13],605 nM
same,IC50,[14],756 nM
same,IC50,[15],151 nM
RPRFRELVSEFSRMA [Peptide 9019.0095],IC50,[16],309 nM
same,IC50,[9],351 nM
same,IC50,[17],2320 nM
same,IC50,[18],151 nM
same,IC50,[10],26 nM
same,IC50,[19],26 nM
same,IC50,[12],62 nM
same,IC50,[13],38 nM
same,IC50,[14],125 nM
same,IC50,[15],6220 nM
same,IC50,[20],376 nM
SQFLRGQECVEECRV [9019.0062],IC50,[1],540 nM
same,IC50,[21],462 nM
same,IC50,[7],7040 nM
same,IC50,[5],4550 nM
same,IC50,[6],1020 nM
VAAVQGLNLRSPNNF [Cyclin D1.209 (peptide 9019.0171)],IC50,[22],44 nM
LREVRAVTSANIQEF [9019.0046],IC50,[21],17 nM
same,IC50,[7],94 nM
KLCIYTDNSIRPEEL [Cyclin D1.123],IC50,[16],1100 nM
same,IC50,[9],33 nM
same,IC50,[10],1920 nM
same,IC50,[19],4620 nM
same,IC50,[11],879 nM
same,IC50,[13],90 nM
same,IC50,[15],64 nM
LLTFWNPPTTAKLTI [CEA.24 peptide 9019.0105],IC50,[16],3.7 nM
same,IC50,[10],69 nM
same,IC50,[19],31 nM
same,IC50,[12],52 nM
same,IC50,[14],52 nM
same,IC50,[23],3000 nM
PPSMVAAGSVVAAVQ [Cyclin D1.109],IC50,[9],91 nM
same,IC50,[10],6.8 nM
same,IC50,[11],55 nM
same,IC50,[20],1400 nM
AYVMAGVGSPYVSRL [9019.0077],IC50,[2],5060 nM
same,IC50,[3],596 nM
same,IC50,[21],92 nM
same,IC50,[7],308 nM
same,IC50,[4],402 nM
KIPVAIKVLRENTSP [1622.03],IC50,[2],7800 nM
same,IC50,[21],1500 nM
same,IC50,[7],1500 nM
same,IC50,[5],125 nM
same,IC50,[6],3860 nM
same,IC50,[8],4110 nM
MAGVGSPYVSRLLGI [9019.0078],IC50,[1],352 nM
LQRYSEDPTVPLPSE [Peptide 9019.0099],IC50,[11],280 nM
same,IC50,[12],13100 nM
same,IC50,[14],94 nM
same,IC50,[15],18 nM
